Measurements as given in patent US20250302939A1, “VACCINE FOR HUMAN T-LY[…]-1” (The United States of America, as represented by the …, priority 2022, published 2025).

System: MHC class-I
Assay: Surface expression of MHC class I in transduced Jurkat T-cells (FACS)
Assay type: cell-based, human
Conditions: HIV nef as positive control
Description: FIGS. 5A-5E. (FIG. 5A) Amino acids alignment between Rex-orfI protein (p16) (SEQ ID NO: 10) and p12/p8 (SEQ ID NO: 11). Amino acids changes are underlined. Jurkat T-cells (FIG. 5B) or THP-1 cells (FIG. 5C) were transduced with lentiviral GFP vector expressing p12/p8 HA tag, or p16-HA tag or only GFP, as a control. Forty-eight hours post-transfection proteins were extracted and immunoblot with anti HA antibody was performed. Jurkat T-cells were transduced with GFP-lentiviruses expressing p16, Nef, or only GFP as a control. Cells were stained with HLA-ABC antibody (PE/Cy5 anti-human HLA-A,B,C clone w6/32 BioLegend) and analyzed by FACS. (FIG. 5D) Protein expression was verified by Immunoblot using an anti HA antibody and B-actin as control (cell signaling and appropriate secondary antibodies purchased from Santa Cruz Biotechnology) (FIG. 5E).
The cDNA synthesized from the rex-orf-I mRNA (FIG. 5A) encodes upon transfection a single protein band (p16) in Jurkat T-cells (FIG. 5B and FIG. 5C). In the human myeloid cell line THP-1 further processing of p16 results in two lower protein bands (FIGS. 5D and 5E).

B1: p16: HTLV-1C protein encoded by the rex-orf-I mRNA (SEQ ID NO: 10) (protein, listed as Homo sapiens)
chain: MPKTRRGPRRSQRKRPPTPWQPPPFSLQGLCLALQLSSITINPQLRHSFSSSTTLPCLLLPSSLFCLSPLALAALLFLQFSPGAVGGLLLRPPPAPSLLLSLPFQKLSNLFLLLFFPLSFSLSLLLGPSPPITMRFPARWRFLFRRAPSQPA
Q: With B1 as the molecule, how does the “effect on surface expression of MHC class I” value read?
A: The value was “does not affect surface expression of MHC-class I”.
